B1: PRO480 (bispecific antibody, part only; not given: second specificity domains and linkers, V domains shown, not shown: another chain or arm of the molecule)
VL: DVVMTQSPSSLSASVGDRVTITCQASQIISSRSAWYQQKPGQPPKLLIYQASKLASGVPSRFSGSGSGTDFTLTISSLQPEDFATYYCQCTYIDSNFGAFGGGTKLTVLG
VH: EVQLVESGGGLVQPGGSLRLSCAASGFSFSSSYWICWVRQAPGKGLEWVGCVFTGDGTTYYASWAKGRFTISRDNSKNTVYLQMNSLRAEDTATYFCARPVSVYYYGMDLWGQGTLVTVSS
B2: PRO462 (bispecific antibody, part only; not given: second specificity domains and linkers, V domains shown, not shown: another chain or arm of the molecule)
VL: DIQMTQSPSSLSASVGDRVTITCQSSESVYSNNQLSWYQQKPGQPPKLLIYDASDLASGVPSRFSGSGSGTDFTLTISSLQPEDFATYYCAGGFSSSSDTAFGGGTKLTVLG
VH: EVQLVESGGGLVQPGGSLRLSCAASGFSLSSNAMGWVRQAPGKGLEYIGIISVGGFTYYASWAKGRFTISRDNSKNTVYLQMNSLRAEDTATYFCARDRHGGDSSGAFYLWGQGTLVTVSS

Legend:
[1] = biological target: human serum albumin (human) (UniProt P02768); test: SPR, scDb, pH 5.5
[2] = biological target: cynomolgus serum albumin (cynomolgus) (UniProt A2V9Z4); test: SPR, scDb, pH 5.5
[3] = biological target: human serum albumin (human) (UniProt P02768); test: SPR, scDb, pH 7.4
[4] = biological target: cynomolgus serum albumin (cynomolgus) (UniProt A2V9Z4); test: SPR, scDb, pH 7.4

Row | Binder | Kd [1] [nM] | koff [1] [s⁻¹] | kon [1] [M⁻¹ s⁻¹] | Kd [2] [nM] | koff [2] [s⁻¹] | kon [2] [M⁻¹ s⁻¹] | Kd [3] [nM] | koff [3] [s⁻¹] | kon [3] [M⁻¹ s⁻¹] | koff [4] [s⁻¹] | kon [4] [M⁻¹ s⁻¹]
1 | B1 | 2.3 | 0.000173 | 75000 | 4.82 | 0.000373 | 77600 | 3.36 | 0.000235 | 70100 | 0.000549 | 57000
2 | B2 | 0.371 | 0.000333 | 897000 | 0.175 | 0.000175 | 1e+06 | 0.728 | 0.000345 | 474000 | 0.000221 | 630000

— patent US20200325214A1
